Results as given in patent publication US20150079113A1 (MIT, published 2015).

B1: GFP-tagged EVH1 domain of Mena (other, UniProt Q03173 1-112, looked up)
chain: MSEQSICQARAAVMVYDDANKKWVPAGGSTGFSRVHIYHHTGNNTFRVVGRKIQDHQVVINCAIPKGLKYNQATQTFHQWRDARQVYGLNFGSKEDANVFASAMMHALEVLN
notes: domain: EVH1 domain; not shown: GFP tag
B2: GFP-MenaΔLERER (other, UniProt Q03173-3 1-541, looked up)
chain: MSEQSICQARAAVMVYDDANKKWVPAGGSTGFSRVHIYHHTGNNTFRVVGRKIQDHQVVINCAIPKGLKYNQATQTFHQWRDARQVYGLNFGSKEDANVFASAMMHALEVLNSQEAGPTLPRQNSQLPAQVQNGPSQEELEIQRRQLQEQQRQKERMSNAAAPASAETPLNPELGDSSASEPGLQAASQPAESPTPQGLVLGPPAPPPPPPLPSGPAYASALPPPPGPPPPPPLPSTGPPPPPPPPPPLPNQAPPPPPPPPAPPLPASGIFSGSTSEDNRPLTGLAAAIAGAKLRKVSRVEDGSFPGGGNTGSVSLASSKADAGRGNGPLPLGGSGLMEEMSALLARRRRIAEKGSTIETEQKEDRNEDAEPITAKAPSTSTPEPTRKPWERTNTMNGSKSPVISRPKSTPSSQPSANGVQTEGLDYDRLKQDILDEMRKELAKLKEELIDAIRQELSKSNTA
notes: Expressed in MVD7 cells; also called Mena mutant lacking the LERER repeat; not shown: GFP tag
B3: β1 integrin (endogenous) (receptor, mouse, UniProt P09055 21-798, looked up)
chain: QTDKNRCLKANAKSCGECIQAGPNCGWCTNTTFLQEGMPTSARCDDLEALKKKGCQPSDIENPRGSQTIKKNKNVTNRSKGMAEKLRPEDITQIQPQQLLLKLRSGEPQKFTLKFKRAEDYPIDLYYLMDLSYSMKDDLENVKSLGTDLMNEMRRITSDFRIGFGSFVEKTVMPYISTTPAKLRNPCTSEQNCTSPFSYKNVLSLTDRGEFFNELVGQQRISGNLDSPEGGFDAIMQVAVCGSLIGWRNVTRLLVFSTDAGFHFAGDGKLGGIVLPNDGQCHLENNVYTMSHYYDYPSIAHLVQKLSENNIQTIFAVTEEFQPVYKELKNLIPKSAVGTLSGNSSNVIQLIIDAYNSLSSEVILENSKLPDGVTINYKSYCKNGVNGTGENGRKCSNISIGDEVQFEISITANKCPNKESETIKIKPLGFTEEVEVVLQFICKCNCQSHGIPASPKCHEGNGTFECGACRCNEGRVGRHCECSTDEVNSEDMDAYCRKENSSEICSNNGECVCGQCVCRKRDNTNEIYSGKFCECDNFNCDRSNGLICGGNGVCRCRVCECYPNYTGSACDCSLDTGPCLASNGQICNGRGICECGACKCTDPKFQGPTCETCQTCLGVCAEHKECVQCRAFNKGEKKDTCAQECSHFNLTKVESREKLPQPVQVDPVTHCKEKDIDDCWFYFTYSVNGNNEAIVHVVETPDCPTGPDIIPIVAGVVAGIVLIGLALLLIWKLLMIIHDRREFAKFEKEKMNAKWDTGENPIYKSAVTTVVNPKYEGK
notes: whole, on cells
B4: α5 integrin (endogenous) (receptor, mouse, UniProt P11688 45-1053, looked up)
chain: FNLDAEAPAVLSGPPGSLFGFSVEFYRPGRDGVSVLVGAPKANTSQPGVLQGGAVYVCPWGTSPIQCTTIQFDSKGSRILESSLYSAKGEEPVEYKSLQWFGATVRAHGSSILACAPLYSWRTEKDPQNDPVGTCYLSTENFTRILEYAPCRSDFGSAAGQGYCQGGFSAEFTKTGRVVLGGPGSYFWQGQILSATQEQISESYYPEYLINPVQGQLQTRQASSVYDDSYLGYSVAVGEFSGDDTEDFVAGVPKGNLTYGYVTVLNGSDIHSLYNVSGEQMASYFGYAVAATDTNGDGLDDLLVGAPLLMERTADGRPQEVGRVYIYLQRPAGIDPTPTLTLTGQDEFSRFGSSLTPLGDLDQDGYNDVAIGAPFGGEAQQGVVFIFPGGPGGLSTKPSQVLQPLWAAGRTPDFFGSALRGGRDLDGNGYPDLIVGSFGVDKALVYRGRPIISASASLTIFPSMFNPEERSCSLEGNPVSCINLSFCLNASGKHVPNSIGFEVELQLDWQKQKGGVRRALFLTSKQATLTQTLLIQNGAREDCREMKIYLRNESEFRDKLSPIHIALNFSLDPKAPMDSHGLRPVLHYQSKSRIEDKAQILLDCGEDNICVPDLQLDVYGEKKHVYLGDKNALNLTFHAQNLGEGGAYEAELRVTAPLEAEYSGLVRHPGNFSSLSCDYFAVNQSRQLVCDLGNPMKAGTSLWGGLRFTVPHLQDTKKTIQFDFQILSKNLNNSQSNVVSFPLSVEAQAQVSLNGVSKPEAVIFPVSDWNPQDQPQKEEDLGPAVHHVYELINQGPSSISQGVLELSCPQALEGQQLLYVTKVTGLSNCTSNYTPNSQGLELDPETSPHHLQKREAPGRSSTASGTQVLKCPEAKCFRLRCEFGPLHRQESRSLQLHFRVWAKTFLQREYQPFSLQCEAVYEALKMPYQILPRQLPQKKLQVATAVQWTKAEGSNGVPLWIIILAILFGLLLLGLLIYVLYKLGFFKRSLPYGTAMEKAQLKPPATSDA
notes: whole, on cells; Present in cells as the α5β1 heterodimer; detected by immunofluorescence or immunoprecipitated from lysates; also called endogenous α5; alpha5 integrin
B5: Purified His-tagged LERER repeat protein (His-LERER) (other, mouse, UniProt Q03173 175-252, looked up)
chain: LERERMERERLERERLERERLERERLEQEQLERQRQEREHVERLERERLERLERERQERERERLEQLEREQVEWERER
notes: domain: LERER repeat; Expressed and purified from E. coli (pQE80L-His-LERER); also called LERER repeat region of Mena; not shown: His tag of the pQE80L vector

Key:
α5 integrin (endogenous) [1] = biological target: B4; assay: recruitment of α5 to mitochondria in cells expressing FP4-Mito, immunofluorescence
Description: Microscopy—Cells were fixed in 4% paraformaldehyde in PHEM buffer warmed to 37° C. for 20 minutes. Cells were permeabilized in 0.2% TX-100 and blocked in 10% Donkey Serum. […] (Abcam ab25247), integrin αv [RMV-7] (Abcam ab63490), integrin α6 [GoH3] […] F-actin was stained with AlexaFluor Phalloidin (Invitrogen). Z series of images were taken on an Olympus microscope with a 60× plan apo objective. Images were deconvolved using Deltavision Softworx software.

α5 integrin (endogenous) [2] = biological target: B4; assay: cell-based or functional assay
α5 integrin (endogenous) [3] = biological target: B4; assay: recruitment to mitochondria in cells expressing FP4-Mito, immunofluorescence
Description: Microscopy—Cells were fixed in 4% paraformaldehyde in PHEM buffer warmed to 37° C. for 20 minutes. Cells were permeabilized in 0.2% TX-100 and blocked in 10% Donkey Serum. […] (Abcam ab25247), integrin αv [RMV-7] (Abcam ab63490), integrin α6 [GoH3] […] F-actin was stained with AlexaFluor Phalloidin (Invitrogen).

[4] = biological target: p34 subunit of Arp2/3 (endogenous) (UniProt Q9CVB6 1-300); assay: α5 immunoprecipitation from NIH3T3 cell lysates, western blot
Excerpt: To determine if endogenously expressed Mena and α5 integrin form complexes within cells, α5 integrin was immunoprecipitated from NIH3T3 cell lysates followed by Western blot analysis (FIG. 2B).
Western Blotting/Immunoprecipitation. Standard procedures were used for protein electrophoresis, western blotting and immunoprecipitations. Western blots were developed using HRP secondary antibodies and ECL reagent (Amersham). […] Beads were washed three times in lysis buffer, and proteins were eluted in sample buffer.

Purified GST = biological target: T1, Purified GST (UniProt P08515 1-218 = GST); assay: GST pull-down with purified proteins, western blot with anti-His
T1 construct: Control bait in the pull-down assay
T1 sequence (P08515 whole entry): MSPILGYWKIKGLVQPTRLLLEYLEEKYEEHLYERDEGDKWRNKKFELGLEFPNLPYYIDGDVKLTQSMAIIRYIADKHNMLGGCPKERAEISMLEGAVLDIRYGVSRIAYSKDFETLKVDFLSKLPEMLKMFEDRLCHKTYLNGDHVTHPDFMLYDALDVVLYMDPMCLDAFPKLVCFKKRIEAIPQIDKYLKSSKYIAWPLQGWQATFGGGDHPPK
Description: After incubation, GST- and GST-α5 beads containing the His-LERER bound fraction were recovered and analyzed by western blotting along with aliquots of unbound protein from the supernatant.
Binding Assays: GST-α5 integrin constructs and His-tagged variants of the LERER repeat region were expressed and purified from E. Coli. 10 nM α5 integrin cytoplasmic tail was immobilized on Glutathione beads and incubated for 1 hour, 4° C. with 200 nM His-LERER variants at constant agitation in PBS with 0.1% TritonX-100 and 2 mM βME. Beads were washed three times, and proteins were eluted in sample buffer, and assayed by western blot.

Binder: B1
binding result (α5 integrin (endogenous) [1]): no binding

Binder: B2
t1/2 of fluorescence recovery (FRAP) in nascent, peripheral adhesions, cells plated for 30 minutes on FN (α5 integrin (endogenous) [2]): 11.9 s | binding result (α5 integrin (endogenous) [1]): no binding

Binder: B3
binding result (α5 integrin (endogenous) [3]): binds

Binder: B4
binding result [4]: no binding

Binder: B5
binding result (Purified GST): no binding (tested: 200 nM His-LERER variants)
